In test [1] the target is integrin αvβ3 (purified, human) (human) (UniProt P06756). The test can be described thus: solid phase ELISA, coated ligand, purified αvβ3 (1 µg/ml).
For test [2], the target named is integrin αvβ3 on activated rat hepatic stellate cells (HSC) (rat) (UniProt Q8R2H2). Description: cell-based or functional assay.
integrin αvβ3 on activated rat hepatic stellate cells (HSC) (rat), sequence (Q8R2H2 26-787): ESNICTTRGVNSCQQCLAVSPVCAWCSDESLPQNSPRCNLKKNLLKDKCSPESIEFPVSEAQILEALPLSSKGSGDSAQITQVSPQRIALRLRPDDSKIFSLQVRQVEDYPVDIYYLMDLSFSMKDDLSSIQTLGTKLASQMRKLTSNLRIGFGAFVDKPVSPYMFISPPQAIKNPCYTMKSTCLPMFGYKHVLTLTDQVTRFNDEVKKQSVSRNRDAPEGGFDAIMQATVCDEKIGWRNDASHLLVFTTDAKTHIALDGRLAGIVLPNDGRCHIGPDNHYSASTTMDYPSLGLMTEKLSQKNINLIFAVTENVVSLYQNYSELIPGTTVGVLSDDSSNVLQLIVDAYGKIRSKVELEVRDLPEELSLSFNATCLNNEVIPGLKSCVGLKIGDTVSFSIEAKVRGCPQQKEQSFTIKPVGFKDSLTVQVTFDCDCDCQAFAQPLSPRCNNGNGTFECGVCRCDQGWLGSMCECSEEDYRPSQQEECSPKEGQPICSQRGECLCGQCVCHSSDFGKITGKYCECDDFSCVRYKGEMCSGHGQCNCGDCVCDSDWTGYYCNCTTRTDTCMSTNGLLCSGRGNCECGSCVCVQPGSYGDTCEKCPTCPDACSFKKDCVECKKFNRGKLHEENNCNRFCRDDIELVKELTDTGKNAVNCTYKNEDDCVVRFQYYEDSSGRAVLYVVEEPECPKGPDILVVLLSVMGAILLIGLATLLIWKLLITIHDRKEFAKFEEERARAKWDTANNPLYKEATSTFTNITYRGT

integrin αvβ3 (purified, human) (human), sequence (P06756 31-1048, form in doubt, chain 1 of 2): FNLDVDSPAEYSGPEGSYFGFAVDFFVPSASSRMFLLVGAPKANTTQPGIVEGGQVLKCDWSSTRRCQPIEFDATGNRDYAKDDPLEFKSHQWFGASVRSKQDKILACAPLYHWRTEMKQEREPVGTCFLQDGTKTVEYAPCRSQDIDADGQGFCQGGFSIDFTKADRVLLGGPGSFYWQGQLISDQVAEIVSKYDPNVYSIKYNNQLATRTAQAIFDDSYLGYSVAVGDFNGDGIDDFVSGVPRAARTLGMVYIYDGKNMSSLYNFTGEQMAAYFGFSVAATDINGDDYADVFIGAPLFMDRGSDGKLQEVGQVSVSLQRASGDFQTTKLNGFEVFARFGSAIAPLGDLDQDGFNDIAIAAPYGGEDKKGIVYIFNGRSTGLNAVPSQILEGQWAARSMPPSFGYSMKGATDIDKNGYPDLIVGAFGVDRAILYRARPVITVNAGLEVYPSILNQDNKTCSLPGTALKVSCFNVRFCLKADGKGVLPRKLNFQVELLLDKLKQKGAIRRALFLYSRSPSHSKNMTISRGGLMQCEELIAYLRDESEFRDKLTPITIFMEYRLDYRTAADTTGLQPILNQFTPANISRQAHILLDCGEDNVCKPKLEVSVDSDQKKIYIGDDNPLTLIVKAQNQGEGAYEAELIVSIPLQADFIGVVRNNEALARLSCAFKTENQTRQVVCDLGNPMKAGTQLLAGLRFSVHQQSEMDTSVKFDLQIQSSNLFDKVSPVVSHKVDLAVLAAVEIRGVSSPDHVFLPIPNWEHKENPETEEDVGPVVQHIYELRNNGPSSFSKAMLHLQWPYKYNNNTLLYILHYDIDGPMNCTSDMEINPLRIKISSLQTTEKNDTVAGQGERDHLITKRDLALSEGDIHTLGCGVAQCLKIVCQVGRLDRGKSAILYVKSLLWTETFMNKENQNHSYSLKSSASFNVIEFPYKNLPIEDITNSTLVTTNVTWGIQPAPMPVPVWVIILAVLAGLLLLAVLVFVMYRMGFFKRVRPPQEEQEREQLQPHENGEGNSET
integrin αvβ3 (purified, human) (human), sequence (P05106 27-788, form in doubt, chain 2 of 2, further chain): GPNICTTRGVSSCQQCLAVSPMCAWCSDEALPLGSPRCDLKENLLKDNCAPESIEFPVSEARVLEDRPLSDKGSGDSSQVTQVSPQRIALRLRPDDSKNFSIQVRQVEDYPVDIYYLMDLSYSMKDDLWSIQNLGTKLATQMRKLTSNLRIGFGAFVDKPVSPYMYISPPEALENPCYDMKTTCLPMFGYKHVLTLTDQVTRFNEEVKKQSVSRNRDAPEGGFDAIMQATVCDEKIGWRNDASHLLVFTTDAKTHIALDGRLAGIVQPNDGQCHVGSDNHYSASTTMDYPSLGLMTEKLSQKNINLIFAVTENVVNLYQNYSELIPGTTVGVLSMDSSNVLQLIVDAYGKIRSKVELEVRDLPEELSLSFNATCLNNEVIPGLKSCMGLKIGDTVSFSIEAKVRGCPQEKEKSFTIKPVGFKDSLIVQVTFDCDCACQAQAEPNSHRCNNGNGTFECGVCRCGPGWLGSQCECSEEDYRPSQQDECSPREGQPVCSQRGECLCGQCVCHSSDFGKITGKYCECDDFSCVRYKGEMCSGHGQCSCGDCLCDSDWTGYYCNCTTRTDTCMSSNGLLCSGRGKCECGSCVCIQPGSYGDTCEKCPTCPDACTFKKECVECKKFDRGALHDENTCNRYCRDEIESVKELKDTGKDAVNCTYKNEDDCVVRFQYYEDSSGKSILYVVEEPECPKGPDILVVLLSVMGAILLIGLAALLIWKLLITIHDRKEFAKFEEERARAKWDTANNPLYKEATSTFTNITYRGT

In turn, vitronectin (ligand) registered a coating concentration at saturation of binding in test [1] of 4 µg/mL. The substance also showed a decrease in HSC binding to vitronectin by RGD peptides (GRGDsp, Echistatin) in test [2] of 100%.

Values taken from patent US20050153395A1, “Unique integrin binding site in connective tissue growth factor (CTGF)” (CHILDREN'S HOSPITAL INC., priority 2003, published 2005).
